Consider one molecule from publication PMC8752127 (Structure(London, England:1993), 2022).

This experiment has as its target CEP164^1−109 (N-terminal domain of human CEP164), untagged (human, UniProt Q9UPV0). The experiment is described as follows: crystal structure; nanobody and CEP164 1-109 (or the TTBK2 1074-1087-CEP164 1-109 fusion protein) mixed equimolar; vapour diffusion at 19°C. The following applies: both partners purified.

B1: camelid nanobody 36Z (VHH)
VHH: QVQLQESGGGLVQAGGSLNLSCVASGSSHFNSMGWYRQAPGKQRDLVADISNDGVTNYADSVKDRFTISTNNAKNAVYLQMNNLKPEDTAVYYCNAVAVAGRAFSYWGQGTQVTVSS
With B1, the binding result was “binds”.
